Article PMC3137711 (Molecular imaging and biology : MIB : the official …, 2011)

Tests used:
MicroPET imaging = format: in vivo, mouse; settings: female, athymic nude, mouse, in vivo, 100 uCi, total radioactivity
[1] = test system: MDA-MB-435 tumor-bearing mice; test: MicroPET imaging; format: in vivo, mouse; settings: co-injection with 300 µg unlabeled c(RGDfk) per mouse

## CC(=O)N(O)CCCCCNC(=O)CCC(=O)N(O)CCCCCNC(=O)CCC(=O)N(O)CCCCCNC(=S)Nc1ccc(NC(=S)NCCOCCOCCOCCOCCC(=O)N[C@@H](CCC(=O)NCCOCCOCCOCCOCCC(=O)NCCCC[C@@H]2NC(=O)[C@@H](Cc3ccccc3)NC(=O)[C@H](CC(=O)O)NC(=O)CNC(=O)[C@H](CCCNC(=N)N)NC2=O)C(=O)NCCOCCOCCOCCOCCC(=O)NCCCC[C@@H]2NC(=O)[C@@H](Cc3ccccc3)NC(=O)[C@H](CC(=O)O)NC(=O)CNC(=O)[C@H](CCCNC(=N)N)NC2=O)cc1 [^89Zr-Df-[FK]2-3PEG4, metal not drawn]
MicroPET imaging
  tissue to tissue ratio at 0.5 h: 12.6 ± 1.07
  tissue to tissue ratio at 1 h: 16.2 ± 3.23
  tissue to tissue ratio at 2 h: 18.2 ± 2.52
  tissue to tissue ratio at 4 h: 19.7 ± 3.99
  tissue to tissue ratio at 24 h: 10.8 ± 1.31
MicroPET imaging; SD
  tissue uptake at 0.5 h: 3.98 ± 0.5 %ID/g
  tissue uptake at 2 h: 4.72 ± 0.66 %ID/g
  tissue uptake at 4 h: 4.47 ± 0.81 %ID/g
  tissue uptake at 24 h: 2.2 ± 0.26 %ID/g
[1]
  decrease of tumor uptake (PET) by blocking: approximately 90%
